From patent US20220023385A1 (Stanford University, published 2022)

T1: human FGFR1 beta (IIIc)-Fc (R&D Systems) (human, UniProt P11362-14 22-285, limits assumed)
T1 construct: Bought reagent; also called FGFR1-Fc; soluble FGFR1-Fc; not shown: Fc domain, detected with anti-Human IgG
T1 sequence (looked up): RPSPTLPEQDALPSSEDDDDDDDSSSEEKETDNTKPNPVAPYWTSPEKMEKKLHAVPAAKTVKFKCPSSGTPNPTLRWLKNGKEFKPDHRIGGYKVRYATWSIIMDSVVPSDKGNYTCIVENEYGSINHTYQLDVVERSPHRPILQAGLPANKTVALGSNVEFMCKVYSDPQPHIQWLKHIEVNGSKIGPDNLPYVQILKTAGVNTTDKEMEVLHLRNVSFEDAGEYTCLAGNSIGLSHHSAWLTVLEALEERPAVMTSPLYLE


Columns and labels:
[1] = biological target: T1, human FGFR1 beta (IIIc)-Fc (R&D Systems); experiment: flow cytometry on yeast displaying the peptide, stained for c-myc and FGFR1-Fc
Description: FIG. 15. Non-binding of peptide artifacts to FGFR1-Fc. Yeast cells expressing RTTTS or HTTS peptides on their cell surface were incubated with 10 nM FGFR1-Fc. Cells were stained with fluorescent antibodies for expression (α-c-myc) and binding (α-FGFR1-Fc).
50,000 induced yeast cells were incubated with various concentrations of FGFR1-Fc in phosphate-buffered saline with 1 g/L BSA (PBSA) at room temperature. Cells were incubated in sufficiently large volumes to avoid ligand depletion and long enough times (typically 3 to 24 hours) to reach equilibrium. During the last 30 minutes of incubation, yeast cells were incubated with 1:2500 dilution of chicken anti-c-Myc (Invitrogen) in PBSA. Yeast were pelleted, washed, then incubated with 1:200 dilution of secondary antibodies on ice for 10 min: anti-Human IgG-FITC (Sigma Aldrich) against FGFR1-Fc and anti-chicken-IgY-PE (Santa Cruz Biotechnology) against anti-c-myc. Yeast were washed, pelleted, and resuspended in PBSA immediately before analysis by flow cytometry using EMD Millipore Guava EasyCyte. Flow cytometry data were analyzed using FlowJo (v7.6.1). Binding curves were plotted and Kd values were obtained using GraphPad Prism 6.

[2] = biological target: T2, Met-Fc fusion protein (R&D Systems) labeled with Alexa 488 (UniProt P08581 25-932, Alexa 488 label); experiment: flow cytometry, yeast display, after heating to varying temperatures
T2 construct: Bought reagent; also called Met-Fc A488; soluble Met-Fc; not shown: Fc domain

[3] = biological target: Met receptor on MDCK cells; experiment: cell-based or functional assay
Met receptor on MDCK cells, sequence (Q75ZY9 whole entry): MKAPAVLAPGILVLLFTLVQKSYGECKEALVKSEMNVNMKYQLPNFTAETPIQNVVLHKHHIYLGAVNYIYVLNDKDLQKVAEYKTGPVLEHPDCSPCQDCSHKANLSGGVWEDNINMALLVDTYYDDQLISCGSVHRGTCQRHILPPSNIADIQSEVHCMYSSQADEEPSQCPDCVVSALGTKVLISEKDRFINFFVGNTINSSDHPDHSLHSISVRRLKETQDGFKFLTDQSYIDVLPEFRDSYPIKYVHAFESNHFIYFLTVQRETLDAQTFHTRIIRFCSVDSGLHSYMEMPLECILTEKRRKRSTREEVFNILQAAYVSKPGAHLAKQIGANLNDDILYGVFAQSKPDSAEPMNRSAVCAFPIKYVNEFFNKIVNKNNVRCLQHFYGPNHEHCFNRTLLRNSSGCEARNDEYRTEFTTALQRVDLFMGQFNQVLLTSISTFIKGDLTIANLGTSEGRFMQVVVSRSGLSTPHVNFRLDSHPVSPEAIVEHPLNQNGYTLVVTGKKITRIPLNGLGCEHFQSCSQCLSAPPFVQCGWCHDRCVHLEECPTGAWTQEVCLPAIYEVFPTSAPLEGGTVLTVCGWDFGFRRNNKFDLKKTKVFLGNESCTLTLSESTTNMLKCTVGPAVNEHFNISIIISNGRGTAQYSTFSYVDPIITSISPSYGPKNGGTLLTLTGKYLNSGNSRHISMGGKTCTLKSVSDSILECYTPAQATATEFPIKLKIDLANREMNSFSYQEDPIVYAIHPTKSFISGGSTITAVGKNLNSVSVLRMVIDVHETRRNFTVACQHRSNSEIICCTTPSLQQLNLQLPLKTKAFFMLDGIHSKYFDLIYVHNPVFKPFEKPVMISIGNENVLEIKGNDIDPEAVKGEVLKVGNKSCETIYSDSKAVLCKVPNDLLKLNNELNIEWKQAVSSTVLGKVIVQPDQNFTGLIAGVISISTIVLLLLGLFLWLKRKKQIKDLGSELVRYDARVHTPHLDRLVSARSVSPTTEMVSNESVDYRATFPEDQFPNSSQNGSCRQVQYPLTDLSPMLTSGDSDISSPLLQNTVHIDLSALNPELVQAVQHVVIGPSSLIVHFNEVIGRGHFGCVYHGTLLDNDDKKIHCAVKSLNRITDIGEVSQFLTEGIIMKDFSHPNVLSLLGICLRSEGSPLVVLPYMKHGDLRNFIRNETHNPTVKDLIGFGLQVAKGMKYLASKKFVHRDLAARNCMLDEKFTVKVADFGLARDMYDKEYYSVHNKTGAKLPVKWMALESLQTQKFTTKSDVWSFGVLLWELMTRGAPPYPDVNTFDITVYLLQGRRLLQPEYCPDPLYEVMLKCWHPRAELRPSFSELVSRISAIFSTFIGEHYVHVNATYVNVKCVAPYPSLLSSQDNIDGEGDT

T2 sequence (P08581 25-932 limits assumed): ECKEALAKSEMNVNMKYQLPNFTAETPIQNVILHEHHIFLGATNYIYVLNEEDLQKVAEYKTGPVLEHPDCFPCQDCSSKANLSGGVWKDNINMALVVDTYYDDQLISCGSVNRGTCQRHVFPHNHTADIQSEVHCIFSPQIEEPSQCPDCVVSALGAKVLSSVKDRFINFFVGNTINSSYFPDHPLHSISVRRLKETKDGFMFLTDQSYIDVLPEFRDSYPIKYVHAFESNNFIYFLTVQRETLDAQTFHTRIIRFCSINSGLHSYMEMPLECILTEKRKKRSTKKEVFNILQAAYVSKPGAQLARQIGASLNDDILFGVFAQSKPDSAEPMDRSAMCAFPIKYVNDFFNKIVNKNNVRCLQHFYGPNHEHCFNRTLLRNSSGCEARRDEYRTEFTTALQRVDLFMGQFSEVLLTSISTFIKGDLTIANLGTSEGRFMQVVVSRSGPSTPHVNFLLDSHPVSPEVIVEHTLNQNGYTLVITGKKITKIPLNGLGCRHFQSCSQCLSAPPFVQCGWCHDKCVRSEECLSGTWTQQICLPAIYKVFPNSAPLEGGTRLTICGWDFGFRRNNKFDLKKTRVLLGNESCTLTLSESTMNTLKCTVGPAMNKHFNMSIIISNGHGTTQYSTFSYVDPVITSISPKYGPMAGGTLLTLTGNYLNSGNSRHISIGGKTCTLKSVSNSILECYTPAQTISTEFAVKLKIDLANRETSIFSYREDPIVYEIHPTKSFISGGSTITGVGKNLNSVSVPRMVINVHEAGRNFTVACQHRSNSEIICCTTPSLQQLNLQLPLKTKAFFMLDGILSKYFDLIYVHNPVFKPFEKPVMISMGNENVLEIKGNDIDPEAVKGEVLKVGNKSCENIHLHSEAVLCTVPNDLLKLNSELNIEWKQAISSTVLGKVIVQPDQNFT

Binder	binding result [1]	binding result [2]	also measured
NK1 mutant M2.1 displayed on yeast (ligand, Yeast display fusion as for m10) YAEGQRKRRNTIHEFKKSAKTTLIKIDPALKIKTEKVNTADQCANRCTRNKGLPFTCKAFVFDKARKQCLWFPFNSMSSGVKKEFGHEFDLYENKDYIRDCIIGKGRSYRGTVSITKSGIKCQPWSSMIPHEHSFLPSSYRGEDLQENYCRNPRGEEGGPWCFTSDPEVRYEVCDIPQCSEVE	–	binds	–
NK1 mutant M2.2 displayed on yeast (ligand, Yeast display fusion as for m10) YAEGQRKRRNTIHEFKKSAKTTLIKIDPALKIKTEKVNTADQCANRCTRNKGLPFTCKAFVFDKARKRCLWFPFNSMSSGVKKEFGHEFDLYENKDYIRDCIIGNGRSYRGTVSITKSGIKCQPWSSMIPHEHSFLPSSYRGEDLRENYCRNPRGEEGGPWCFTSDPEVRYEVCDIPQCSEVE	–	binds	–
Aras-4 (ligand) YAEGQGKRRNTIHEFKKSAKTTLIKIDPALRIKTEKANTADQCANRCTRSKGLPFTCKAFVFDKARKRCLWFPFNSMSSGVKKEFGHEFDLYENKAYIRDCIIGRGRNYRGTVSITKSGIKCQPWSAMIPHEHSFLPSSYRGEDLRENYCRNPRGEEGGPWCYTSDPEVRYEVCDIPQCSEVE	–	–	inhibition of HGF-induced activation of Met, concentration against M2.2 D127A or NK1 N127A [3]: ~5 fold lower concentration

The next lines start with results.

binding result [1]	binding result [2]	Binder	also measured
no binding (tested: 10 nM FGFR1-Fc)	–	HTTS (also called peptide artifact) [HTTS peptide displayed on yeast]	–
no binding (tested: 10 nM FGFR1-Fc)	–	RTTTS (also called peptide artifact) [RTTTS peptide displayed on yeast]	–
